The target of assay [1] is His-tagged DVB1^G90E, full length, from E. coli (rice (Oryza sativa L.)). Nature of the assay: native gel or EMSA; Native-PAGE of the purified His-tagged protein, immunoblot with a His-tag antibody; SDS-PAGE beside it. In general terms: A gel shift assay detects complexes by their altered migration in electrophoresis.
For assay [2], the target named is His-tagged DVB1, full length, from E. coli (rice (Oryza sativa L.)). The assay is described as above.

With “His-tagged DVB1^G90E, full length, from E. coli (natural protein)”, in assay [1], the stoichiometry N was 2.
In turn, “His-tagged DVB1, full length, from E. coli (natural protein)” returned a stoichiometry N in assay [2] of 2.

The stoichiometry N is a count of units in the complex or per binding partner.

For the origin of these results see paper PMC7835275.
